The results in this text go back to the RNAGym collection of RNA variant scans (doi:10.7554/elife.80360).

The labels stand for the following.
B1: Hammerhead Ribozyme (parent)
chain: ACCGGAUGUGCUUUCCGGUCUGAUGAGUCCGUGAGGACGAAACAG

The variants in this data set derive from B1. Nature of the data set: self-cleavage, relative activity (ratio to wild type); higher = more cleavage; co-transcriptional.
Regarding C29U C43U, the self-cleavage stood at 0.47.
The figure for U13C G22C is 0.247; for C16A G36U it is 0.434; for C3A G36C it is 0.338.
The figure for C30G A34G is 0.409; for U32C A41G it is 0.311.
Turning to G10A A40C, the self-cleavage turned out to be 0.676.
As for A37U G39C, the self-cleavage is 0.326.
With U13A C16A, the self-cleavage worked out at 1.49.
To U7C G25A belongs 0.402; to U19G A34C, 0.349.
The figure for U13A U21G is 0.602.
The figure for G17C G18A is 0.361; for U19G C38G it is 0.354; for U28G G36C it is 0.317.
As for G17U A42G, the self-cleavage was determined as 0.333.
The figure for G27A A40U is 0.304; for A26U G27A it is 0.518; for G39A A42U it is 0.348.
As to A1U C3G, the self-cleavage was determined as 0.418.
The figure for G17A A34U is 0.613; for C29U G45C it is 0.443; for G27U U28A it is 0.552.
With C3A G27A, the self-cleavage is 0.365.
To A23C G25C belongs 0.37; to A6C A40U, 0.37; to U19A C20A, 0.287.
To C11U A23C belongs 0.277; to G4U G5A, 0.284.
Turning to U9C U21G, the self-cleavage turned out to be 0.72.
The figure for C29A C43A is 0.345.
The figure for G5C C29U is 0.504.
Consider C2G C43A, for which the self-cleavage was determined as 0.328.
As to U12G G36C, the self-cleavage is 0.679.
The figure for C16G G33C is 0.956.
The figure for G22C A44G is 0.672; for U7G G45U it is 0.526; for G8U U12A it is 0.842.
With A6U G36U, the self-cleavage worked out at 0.391.
To C2A G39A belongs 0.319; to G31A G33A, 0.887.
For the variant C15G A34G, the self-cleavage turned out to be 0.833.
In the case of U21C G36A, the self-cleavage stood at 0.718.
For the variant C11U G45A, the self-cleavage worked out at 0.515.
The figure for C15U U32C is 0.93.
Turning to C16G C20U, the self-cleavage was 0.408.
G10C G17U: the self-cleavage is 0.932.
As for C3U G25C, the self-cleavage was 0.315.
To C11U C38A belongs 0.511; to U9C G10A, 1.19; to G22A C29U, 0.279.
The figure for U13A C15G is 0.895.
As to A23G U28C, the self-cleavage came out at 0.327.
The figure for G18A A26G is 0.331; for G8C C11G it is 1.25.
The figure for C15G G39A is 0.327; for U13C A40G it is 0.465; for U7G G18U it is 0.46.
For G8U A44C, the self-cleavage worked out at 0.59.
The figure for U9A C11A is 1.19; for C2A G25A it is 0.31.
In the case of G5U G39U, the self-cleavage turned out to be 0.33.
With G5U G35C, the self-cleavage turned out to be 0.361.
To U24A A37G belongs 1.09; to A1U U32A, 0.692; to U9G C38A, 0.671.
As to C20U U32G, the self-cleavage amounted to 0.494.
To C30A A42C belongs 0.322; to U19A A34U, 0.388.
On to C11G C29G, for which the self-cleavage was 0.82.
To U12G C16G belongs 0.714; to U9C G22A, 0.34; to G5A G17A, 0.397.
The figure for G10U U12A is 0.87; for G5U G31U it is 1.2.
Regarding G4C G22U, the self-cleavage turned out to be 0.238.
The figure for A23G G36C is 0.291; for U14C G45A it is 0.472.
For G18C A37C, the self-cleavage worked out at 0.373.
Turning to C30G C38G, the self-cleavage is 0.493.
In the case of A6C U13G, the self-cleavage came to 0.673.
Regarding G39A G45U, the self-cleavage came out at 0.372.
To A34G A40C belongs 0.44.
To G22A A40G belongs 0.297; to C11A U14A, 0.829.
The figure for C20G G27C is 0.252.
For the variant C15G A23G, the self-cleavage was 0.32.
The figure for G22A A34G is 0.365; for U19G A41G it is 0.345.
G5U U12C: the self-cleavage was 0.804.
Take G27C G36U: the self-cleavage stood at 0.371.
Regarding U24G G33A, the self-cleavage amounted to 1.18.
For the variant A34G G39C, the self-cleavage was 0.338.
For U21G A26G, the self-cleavage turned out to be 0.343.
To C2A G35U belongs 0.457.
To U14C C30A belongs 0.7; to G39C A44U, 0.415; to C2G A42C, 0.32.
Consider U12C G35C, for which the self-cleavage turned out to be 0.617.
To G8C A34G belongs 1.11.
Take U7A C20G: the self-cleavage came out at 0.376.
As to G17C G22U, the self-cleavage is 0.284.
For the variant U14C A34U, the self-cleavage worked out at 0.67.
The figure for G8A A44C is 0.508.
The figure for U19A A44U is 0.262.
In the case of G10C G45U, the self-cleavage was found to be 0.812.
As for G4U U19G, the self-cleavage came to 0.343.
The figure for U9G A34U is 0.631.
The figure for G27U C43G is 0.268.
Consider C30A C43U, for which the self-cleavage amounted to 0.431.
The figure for A34C G45U is 0.515.
To G33C A41U belongs 0.459.
To G25C A26C belongs 0.355.
C3U G18A: the self-cleavage was found to be 0.412.
For G5C G45C, the self-cleavage stood at 0.397.
In the case of G25A A37C, the self-cleavage is 0.301.
In the case of C3G G17A, the self-cleavage was determined as 0.511.
As for A41C G45C, the self-cleavage worked out at 0.336.
Regarding G31C A42G, the self-cleavage was found to be 0.232.
On to U19G A23G, for which the self-cleavage was found to be 0.3.
To A23G A41C belongs 0.34.
The figure for G22C A23C is 0.28.
The figure for A1U G27A is 0.437; for U14G G18A it is 0.54.
Turning to G5C G22U, the self-cleavage was determined as 0.299.
The figure for U9A C38A is 0.755.
On to A1U G10U, for which the self-cleavage was 0.997.
As to U28G A40U, the self-cleavage came out at 0.323.
The figure for G22U C38G is 0.33; for G10C A40C it is 0.457; for G4A C43G it is 0.29.
With C15U G18C, the self-cleavage was 0.491.
To G33A C38U belongs 0.995.
The figure for C11A G35U is 0.902; for G10A A44G it is 1.71; for C3U A23C it is 0.491.
The figure for G10U C11A is 1.25; for C30U A37G it is 1.21.
Turning to A1U G33U, the self-cleavage is 0.972.
U14A G33U: the self-cleavage is 0.872.
Turning to U9C A34G, the self-cleavage came out at 0.946.
As to C11G U12A, the self-cleavage worked out at 1.1.
Regarding A6U U13G, the self-cleavage was found to be 0.616.
For A1U U24C, the self-cleavage was determined as 0.726.
A1U U24G: the self-cleavage is 0.508.
Take G10C U12A: the self-cleavage was 0.954.
The figure for A6C G45U is 0.44.
The figure for C20A A41C is 0.388.
The figure for C30U A42U is 0.328; for U28C A40C it is 0.44.
In the case of C16G G27C, the self-cleavage stood at 0.35.
The figure for G33U A34G is 0.752.
As for G25C C30G, the self-cleavage turned out to be 0.221.
As for C15G C43A, the self-cleavage was 0.262.
For the variant A40G A41U, the self-cleavage was determined as 0.31.
Regarding U28A G31U, the self-cleavage was 0.92.
The figure for U13A G39U is 0.339; for G18A G35C it is 0.479.
In the case of C2G G36C, the self-cleavage turned out to be 0.336.
As for U24C A26C, the self-cleavage came out at 0.609.
The figure for G10A U24G is 0.875; for G31U A44U it is 0.94; for U14A G22C it is 0.327.
As to G35C A41C, the self-cleavage was 0.337.
To C2U U12G belongs 1.21.
To C11U C16G belongs 0.684; to C11U C16U, 0.817.
